Experimental data taken from US20230071321A1 (VIB VZW, published 2023).
Like-named read-outs stand apart in the source and are kept apart here. Each block holds one binder with its values, some of them ahead of it.

Columns and labels:
[1] = biological target: T1, hCXCR4Rho1D4 (full-length human CXCR4 receptor with C-terminal Rho1D4 tag) (human, UniProt P61072 6-352 (Pan troglodytes entry)); assay: cell-based or functional assay
[2] = biological target: T1, hCXCR4Rho1D4 (full-length human CXCR4 …); assay: cell-based or functional assay; remark: listed apart in the source
[3] = biological target: T1, hCXCR4Rho1D4 (full-length human CXCR4 …); assay: control Nanobody co-expressed with hCXCR4Rho1D4 in P. pastoris; receptor level read by anti-Rho1D4 immunoblot
From the text: Equal amounts of total membrane protein (determined by a BCA assay) of induced P. pastoris GS115 clones, expressing only the human CXCR4 receptor, or in combination with a anti-hCXCR4 Nanobody (NbCA4142), or in combination with the negative control Nanobody (NbCA4910), were run on a 12% SDS-PAGE gel and blotted on a nitrocellulose membrane. The blot was developed with a primary mouse anti-Rho1D4 monoclonal antibody and a secondary Dylight (800 nm) goat anti-mouse IgG on an LI-COR odyssey system. For the hCXCR4-specific Nb co-expressing clone we detect more of the anti-Rho1D4 immunoreactive membrane protein band compared to the GS115hCXCR4 clone without Nb co-expression. […] Exact quantification has been calculated by the Odyssey software by measuring relative fluorescent signals (Table 4). It can, thus, be concluded that the increase in receptor expression can be attributed to the Nanobody-specific interaction with the receptor.
Protein samples were analyzed by SDS-poly-acrylamide gel electrophoresis, according to the Laemmli (Laemmli et al., 1970, Nature, 227:680) or the Tricine method (Schagger et al., 2006, Nat. Protoc. 1:16-22). Before loading on gel, the samples were mixed with 5×Laemmli (60 mM Tris-HCl pH 6,8; 2% SDS, 10% glycerol, 5% β-ME; 0.01% bromophenol blue) and heated for 10 minutes at 95° C. (only the ECM samples, not the membrane protein preparations). […]

T1 sequence (P61072 other isoform, or with tags, fused parts or gaps limits assumed): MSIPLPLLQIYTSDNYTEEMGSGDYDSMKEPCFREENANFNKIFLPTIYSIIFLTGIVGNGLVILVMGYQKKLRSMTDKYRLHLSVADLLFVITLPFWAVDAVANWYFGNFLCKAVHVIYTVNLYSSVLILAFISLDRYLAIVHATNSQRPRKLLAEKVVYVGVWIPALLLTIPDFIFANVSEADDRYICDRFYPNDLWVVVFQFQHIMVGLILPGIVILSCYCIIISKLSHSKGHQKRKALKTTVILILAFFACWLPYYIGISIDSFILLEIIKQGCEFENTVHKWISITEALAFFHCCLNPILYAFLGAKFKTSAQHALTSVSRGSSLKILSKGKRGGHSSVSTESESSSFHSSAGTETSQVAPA

Factor improvement (relative hCXCR4 expression, anti-Rho1D4 immunoblot fluorescence), clone 1 [2]: 0.4 fold | Factor improvement (relative hCXCR4 expression, anti-Rho1D4 immunoblot fluorescence), clone 2 [2]: 1.1 fold | Factor improvement (relative hCXCR4 expression, anti-Rho1D4 immunoblot fluorescence), clone 3 [2]: 1.2 fold | binding result [3]: no binding
B4: Nanobody CA4910 (VHH)
VHH: QVQLVESGGGLVQPGGSLRLSCAASGSFRSIVSMAWYRQAPGKQRELVASSNSGGSTNYADSVKGRFTISRDNAKNTVYLQMNSLKPEDTAVYWCNVQNRLPGFDAFSGRSIAETYWGQGTQVTVSS
notes: It was co-expressed in P. pastoris as a control; also called NbCA4910; Nb4910

Factor improvement (relative hCXCR4 expression, anti-Rho1D4 immunoblot fluorescence) [1]: 1.3 fold
B5: Nanobody CA4500 (VHH)
VHH: QVQLQESGGGLVQAGGSLRLSCAASGSTSGIIAMGWYRQAPGKQRELVARISSGSSTNYADSVKGRFTVSRDNAKNTVYLQMNSLKPEDTAVYYCNAVRRGYRNDYNSWGQGTQVTVSS

Second part, the binder before the results:

B1: Nanobody CA4142 (VHH)
VHH: QVQLQESGGGLVRTGGSLRLSCAGSGSFFSINPMGWYRQAPGQQRELVATITGSGSTNYADSVKGRFTISRDNAKNTLYLQMNSLKPEDTAVYYCNAGYFDRIGRRYDRWGQGTQVTVSS
Factor improvement (relative hCXCR4 expression, anti-Rho1D4 immunoblot fluorescence) [1]: 2.6 fold | Factor improvement (relative hCXCR4 expression, anti-Rho1D4 immunoblot fluorescence) [2]: 1.9 fold

B2: Nanobody CA4140 (VHH)
VHH: QVQLQESGGGLVQPGGSLRLSCAASGSIFSINAMGWYRQAPGKQRELVAAITSGGSTNYADSVKGRFTISRDNAENTVYLQMNNLKPEDTAVYSCNAEGTSGSSRYRRRYEYWGKGTQVTVSS
Factor improvement (relative hCXCR4 expression, anti-Rho1D4 immunoblot fluorescence) [1]: 2.8 fold

B3: Nanobody CA4143 (VHH)
VHH: QVQLQESGGGLVQPGGSLRLSCAASGFTFSSYAMSWVRQAPGKGLEWVSTINSGGRSANYADSVKGRLTISRDNAKNTLHLQMNSLKPEDTALYYCARPRSVSRNYVPLGYDYLGQGTQVTVSS
Factor improvement (relative hCXCR4 expression, anti-Rho1D4 immunoblot fluorescence) [1]: 3 fold
